# Measured values taken from the nanobody polyreactivity screen of Harvey et al. (2022).
# Assay: yeast display, Sf9 membrane polyspecificity reagent, FACS + sequencing; frameworks hold sequencing errors
# Summary of the method: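 A nanobody's polyreactivity label depends on the gate it was sorted from. Yeast display cells were stained with 10% biotinylated, detergent-solubilized Sf9 membrane reagent for 1 hour at 4 °C, enriched on streptavidin microbeads and sorted by FACS. The low and high (top ~1%) gates were set on anti-HA fluorescence for expression and streptavidin fluorescence for reagent binding.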
row,Sequence,polyreactivity (PSR sort gate)
1,QVQLVESGGGLVQAGGSLRLSCAASGSTLAQYAMGWYRQAPGKETELVADISWSGGSTYYADSVKGRFTISRDNAKNTVYLQMNSLKPDDTAVYYCNAYAFDSVREEDYWGQGTQGTVSS,low polyreactivity
2,QVQLVESGGGLVQAGGSLRLSCAASGSTLATYTMGWYRQAPGKERELVAAISFGGSTYYADSVKGRFTISRDNAKNTVYLQMNSLKPEDTAVYYCAVYGDSYWGAYYYSDGYWGQGSQVTVSS,low polyreactivity
3,QVQLVESGGGLVQAGGSLRLSCAASGSTLAVYAKGWSRQAPGKERELVAVIDRGGSTYYADSVKGRFTISRDNAKNTVYLQLNCLKPEDTAVYFCNARRVKGYGYWGQGTQVTVSS,high polyreactivity
4,QVQLVESGGGLVQAGGSLRLSCAASGSTLDIYAMGWYRQAPGKERELVAAITSGGSTNYADSVKGRFTISRDNAKTTVYLQLNSLKPEDTAVYSCNARYFRGYDYWGQGTQVSVSS,high polyreactivity
5,QVQLVESGGGLVQAGGSLRLSCAASGSTLDVYAMGWYRQAPGKERELVAAISWSVGSTYYADSVKGRFKISRDNAKNTVYLQMNSLKPEDTAVYYCAAEPYEYAYYGYDYWGQGTQVTVSS,high polyreactivity
6,QVQLVESGGGLVQAGGSLRLSCAASGSTLDVYDMGWYRQAPGKEREFVATISFSVGSTDYADSVKGRFTISRDNAKNTVYLQMNSLKPEDTAVYYCAADVSEWSNQYFDSYLRMDYWGQGTQVTVSS,low polyreactivity
7,QVQLVESGGGLVQAGGSLRLSCAASGSTLESYAMGWYRQAAGKERELVAAISKSGGRTYYADSVKGRFTISRDNAKNTVYLQMNSLKPEDTAVYYCAADSCTHLTYYWGQGTQVTVSS,high polyreactivity
8,QVQLVESGGGLVQAGGSLRLSCAASGSTLFAYAMGWYRQAPGKERELVAAITSGASTNCADSVKGRFTISRDNAKNTVYLQMNSLKPEDTAVYYCAKDVSGTNPDYDYWGQGTQVTVSS,low polyreactivity
9,QVQLVESGGGLVQAGGSLRLSCAASGSTLFGYAMGWYRQAPGKEREFVAAISRSGGRTYYADSVKGRFTISRDNAKNTVYLQMNSLKPEDTAVYYCATVRRRLSLTYDYWGQGTQVTVSS,high polyreactivity
10,QVQLVESGGGLVQAGGSLRLSCAASGSTLFLYAMGWYRQAPGKERELVAAITWSGGSTYYADSVKGRFTISRDNAKNTVYLQMNSLKPEDTAVYYCAKYGRYFWNSGVDYWGQGTQVTVSS,high polyreactivity
11,QVQLVESGGGLVQAGGSLRLSCAASGSTLFTYAMGWYRQAPGKERELVAAITSSGSTYYADSVKGRFTISRDNAKNTVYLQMNSLKPEDTAVYYCAVPGYRYTKYYYWGQGTQVTVSS,low polyreactivity
12,QVQLVESGGGLVQAGGSLRLSCAASGSTLGAYAMGWYRQAPGKERELVAAITYSTGSTYYADSVKGRFTISRDNAKNTVYLQMNSLKPEDTAVYYCAAATYQSRYFQRFDCWGQGTQVTVSS,high polyreactivity
13,QVQLVESGGGLVQAGGSLRLSCAASGSTLGGYAMGWYRQAPGKERELVASISWDDVRTYYADSVKGRFTISRDNAKNTVYLQMNSLKPEDTAVYYCAKGDIEYFWSRIYGYWGQGTQVTVSS,low polyreactivity
14,QVQLVESGGGLVQAGGSLRLSCAASGSTLGRNAMGWDRQAPGKEREFVAAITYSTGSTYYADSVKGRFTISRDNAKNTVYVQMNSLKPEDTAVYYCAKGRLTRGYVTFEYWGQGTQVTGSS,high polyreactivity
15,QVQLVESGGGLVQAGGSLRLSCAASGSTLGYNAMGCYRQAPGKERELVAAIRGGDDDTYYADSVKGRFTISRDNAKNTVYLQMNSMNPEDTAVYYCATGDTSIPYSPPGGYDSWGQGTQVTVSS,low polyreactivity
16,QVQLVESGGGLVQAGGSLRLSCAASGSTLGYYAMGWYRQAPGKERELVAAISKGGGSTYYADSVKGRFTISRDNAKNTVYLQMNSLKPEETAVYYCAAYSTSWSRYDYWGQGTQVTVSS,high polyreactivity
17,QVQLVESGGGLVQAGGSLRLSCAASGSTLHYYAMGWYRQAPGKERELVAAISATGGSTYYADSVKGRFTISRDNAKNTVYLQMNSLKPEDTAVYYCARTYRSHWVYTRLDYWGQGTQVTVSS,high polyreactivity
18,QVQLVESGGGLVQAGGSLRLSCAASGSTLIANAMGWYRQAPGKERELVAGITYRGGDITTYADSVKGRFTISRDNAKNTVYLQKTSLKPEDTAVYYCAARVVWPTWARGGYWGQGTQVTVSS,low polyreactivity
19,QVQLVESGGGLVQAGGSLRLSCAASGSTLKRYAMGWYRQAPGKERELVARISRIGGSTFYADSVKGRFTISRDNAKNTVYLQMNSLNPEDTAVYYCAAVPLHYVYRADQAYYRYNYWGQGTQVTVSS,high polyreactivity
20,QVQLVESGGGLVQAGGSLRLSCAASGSTLKYNAMGWYRQAPGKEREFVASITLSAGRTYYADSVKGRFTISRDNAKNTVYLQMNSLKPEDTAVYYCAARRYFSYRYDYWGQGTQVTVSS,high polyreactivity
21,QVQLVESGGGLVQAGGSLRLSCAASGSTLKYYAMGRYRQAPGKEMELVAAIRNLGGRTYYADSVKGRFTISRDNAKNTVYLQMNSLKPEDTAVYYCAAQFQSTAVGRDNYWGQGTQVTVSS,high polyreactivity
22,QVQLVESGGGLVQAGGSLRLSCAASGSTLLANAMGWYRQAPGKERELVATITNSGGGTYYADSVKGRFTISRDNAKNTVYLQMNSLKPEDTAVYYCAAVYTGRSQYSKWRYEYWGQGTQVTVSS,low polyreactivity

row,Sequence,polyreactivity (PSR sort gate)
1,QVQLVESGGGLVQAGGSLRLSCAASGSTLLYYAMGWYRQAPGKERELVAAINKSGGRTYYADSVKGRFTISRDNAKNTVYLQMNSLKPEDTAVYYCAVDISVTGSSNRYGYWGQGTQVTVSS,high polyreactivity
2,QVQLVESGGGLVQAGGSLRLSCAASGSTLNRNVMGSYRQAPGKERELVAVITYGVGSTYYADSVKGRFTISRDNAKNTVYLQLNSLKPEDTAVYYCNKDPLVFDYWGQGTQVTVSS,low polyreactivity
3,QVQLVESGGGLVQAGGSLRLSCAASGSTLNRYAMGWYRQAPGKERELVAAISISGGRTYYADSVKGRFTISRDNAKNTVYLQMNSLKPEDTAVYYCADGNYLYSYGYGYWGQGTQVTVSS,high polyreactivity
4,QVQLVESGGGLVQAGGSLRLSCAASGSTLQVNAMGWYRQAPGKETELVATISFSGGSTYYADSVKGRFTISRDNAMNTVYLQMNSLKPEETAAYYCNADSFVSWYNQFWYQATYDYWGQGTKVTVSS,low polyreactivity
5,QVQLVESGGGLVQAGGSLRLSCAASGSTLRAYAMGWYRQAPGKDRELVAAISGRGGRTYYADSVKGRFTISRDNAKNTVYLQMNSLKPEDTAVYYCATRYREPYVWPYDYWGRGTQVTVSS,high polyreactivity
6,QVQLVESGGGLVQAGGSLRLSCAASGSTLRGNAMGWYRQAPGKEREFVAAISSSGGRTYYADSVKGRFTISRDNAKNTVYLQMNSLKPEDTAVYYCNADPYNYSRRYRLRKYGYWGQGTQVTVSS,high polyreactivity
7,QVQLVESGGGLVQAGGSLRLSCAASGSTLRHNVMGWYRQAPGKERELVAAITFSGGSTTYADSVKGRFTISRDNAKNTVYLQMNSLKPEDTAVYYCNAVYAGAGSFHPGYGYWGQGTQVTVSS,low polyreactivity
8,QVQLVESGGGLVQAGGSLRLSCAASGSTLRRYAMGWYRQAPGKERELVAAITYRSGSTYYADSVKGRFTISRDNAKNTVYLQMNSLKPEDTAVYYCAKVGYVSKYWFAGDYWGQGTQVTVSS,high polyreactivity
9,QVQLVESGGGLVQAGGSLRLSCAASGSTLRSYVMGWYRQAPGKERELVAAISIRGDSTYYADSVKGRFTISRDNAKNTVYLQMNSLKPEDTAVYYCAAASNRYPNSWYYYWGQGTQVTVSS,high polyreactivity
10,QVQLVESGGGLVQAGGSLRLSCAASGSTLRYYAMGWYRQAPGKEREWVAAISTGGSTYYADSVKGRFTISRDNAKKTVYLQMHSLKPEDTAVYYCAAEPWANTPGEAGSPFDYWGQGTQVTVSS,low polyreactivity
11,QVQLVESGGGLVQAGGSLRLSCAASGSTLSDNAMGWYRQAPGKERELVASISWSGGTYYADSVKGRFTISRDNAKNTVYLQMNSLKPEDTAVYYCAAYIYYNYSRQYWFDYWGQGTQVTVSS,low polyreactivity
12,QVQLVESGGGLVQAGGSLRLSCAASGSTLSEYAMGWYRQAPGKERELVAAISWSGGSTYYADSVKGRFTISRDNAKNTVYLQMNSLKPEDTAVYDCAAKRYSSKRGLDYWGQGTHVTVSS,high polyreactivity
13,QVQLVESGGGLVQAGGSLRLSCAASGSTLSLYAMGWSRQAPGKERELVAAITSSGGTYYADSVKGRFTISRDNAKNTVYLQMNSLKPEDTADYYCARSRYRAQGKFDYWGQGTQVTVSS,high polyreactivity
14,QVQLVESGGGLVQAGGSLRLSCAASGSTLSQNAMGWYRQAPGKEREFVADISGAGDSTYYADSVKGRFTISRDNAKNTVYLQMISLKPDDTAVYYCATPSPHVGLKWEYDYWGQGTQVTVSS,low polyreactivity
15,QVQLVESGGGLVQAGGSLRLSCAASGSTLSVNAMGWYRPAPGKERELVAAIDFDGGDTYYADSVKGRFTISRDNAKNNVYLQMNSLKPEDTAVYYCAADIGGQYDYLADDYWGQGTQVTVSS,low polyreactivity
16,QVQLVESGGGLVQAGGSLRLSCAASGSTLSYNAMGWYRQAPGKERELVAAISGRGGSTSYADSVKGRFTISRDNAKNTVYLQMNSLKPEDTAVYYCNRYSRSAYEWEYYSWGQGTQVTVSS,high polyreactivity
17,QVQLVESGGGLVQAGGSLRLSCAASGSTLSYYAMGWYRQAPGKERELVAAISFSGGITYYADSVKGRFTISRDNAKNTVYLQMNSLKPEDTAVYYCNAEYQVYRAYVIWYDYWGQGTQVTVSS,high polyreactivity
18,QVQLVESGGGLVQAGGSLRLSCAASGSTLTRNTMGCYRQAPAKERELVATNTRSGGSTYYADSVKGRFTISRDNAKNTVYLQMNSLKPEDTAVYYCAVRRQTFRYVYPGMDYWGQGTQVTVSS,high polyreactivity
19,QVQLVESGGGLVQAGGSLRLSCAASGSTLTSNAMGWYRQAPGKERELVAAIRSGGSTNYADSVKGRFTISRDNAKNTVYLQMNSLKPEDTAVYYCNKDFLWQGYGYSRVSYDYWGQGTQVTVSS,low polyreactivity
20,QVQLVESGGGLVQAGGSLRLSCAASGSTLTYNAMGWYRQAPGKERELVAAIDWDGDTTYYADSVKGRFTISRDNAKNTVYLQMNSLKPEDTAVYYCAAEFYSLGKAIYEYWGQGTQVTVSS,high polyreactivity
21,QVQLVESGGGLVQAGGSLRLSCAASGSTLTYYTMGWYRQAPGKERELVARISWSSGRTYYADSVKGRFTISRDNAKNTVYLQMNSLKPEDTAVYYCNADRTYYRGLDYWGQGTQVTVSS,high polyreactivity
